Each block holds one binder with its values, some of them ahead of it.
Key:
[1] = target: T1, Core_NINI-es_KEKE; test: two-hybrid library CCmax; conditions: mean of both orientations;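 note: natural log of median RNA to DNA barcode read ratio; higher means stronger binding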
T1 chain: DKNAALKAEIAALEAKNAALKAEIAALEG

[2] = target: T2, Core_IINN-es_KEKE; test: two-hybrid library CCmax; conditions: mean of both orientations;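 note: natural log of median RNA to DNA barcode read ratio; higher means stronger binding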
T2 chain: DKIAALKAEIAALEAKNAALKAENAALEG

[3] = target: T3, Core_INNI-es_KKKE; test: two-hybrid library CCmax; conditions: mean of both orientations;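 note: natural log of median RNA to DNA barcode read ratio; higher means stronger binding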
T3 chain: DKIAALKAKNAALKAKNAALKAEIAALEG

[4] = target: T4, O5-bS; test: two-hybrid library CCNG1;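 note: natural log of median RNA to DNA barcode read ratio; higher means stronger binding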
T4 chain: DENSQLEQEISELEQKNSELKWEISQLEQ

[5] = target: T5, O9-bS; test: two-hybrid library CCNG1;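 note: natural log of median RNA to DNA barcode read ratio; higher means stronger binding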
T5 chain: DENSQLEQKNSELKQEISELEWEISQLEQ

[6] = target: T6, O16-bS; test: two-hybrid library CCNG1;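 note: natural log of median RNA to DNA barcode read ratio; higher means stronger binding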
T6 chain: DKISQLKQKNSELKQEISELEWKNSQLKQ

[7] = target: T7, O13-bS; test: two-hybrid library CCNG1
T7 chain: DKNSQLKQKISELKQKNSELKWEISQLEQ

[8] = target: T8, O2-bS; test: two-hybrid library CCNG1
T8 chain: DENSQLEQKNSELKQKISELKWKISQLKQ

[9] = target: T9, O14-bS; test: two-hybrid library CCNG1
T9 chain: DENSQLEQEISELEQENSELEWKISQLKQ

[10] = target: T10, O15-bS; test: two-hybrid library CCNG1
T10 chain: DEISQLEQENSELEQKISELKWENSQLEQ

[11] = target: T11, O6-bS; test: two-hybrid library CCNG1
T11 chain: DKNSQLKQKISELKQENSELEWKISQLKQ

[12] = target: T12, O7-bS; test: two-hybrid library CCNG1
T12 chain: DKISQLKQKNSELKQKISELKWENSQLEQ

[13] = target: T13, O12-bS; test: two-hybrid library CCNG1
T13 chain: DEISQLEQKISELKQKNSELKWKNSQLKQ

[14] = target: T14, O10-bS; test: two-hybrid library CCNG1
T14 chain: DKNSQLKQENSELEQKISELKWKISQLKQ

[15] = target: T15, O4-bS; test: two-hybrid library CCNG1
T15 chain: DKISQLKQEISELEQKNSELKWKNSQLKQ

[16] = target: T16, O11-bS; test: two-hybrid library CCNG1
T16 chain: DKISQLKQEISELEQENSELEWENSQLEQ

[17] = target: T17, O1-bS; test: two-hybrid library CCNG1
T17 chain: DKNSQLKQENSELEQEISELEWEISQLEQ

[18] = target: T18, O8-bS; test: two-hybrid library CCNG1
T18 chain: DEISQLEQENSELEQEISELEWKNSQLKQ

[19] = target: T19, O3-bS; test: two-hybrid library CCNG1
T19 chain: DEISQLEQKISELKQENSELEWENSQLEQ

[20] = target: T20, 4H2702-bH; test: two-hybrid library CCNG1
T20 chain: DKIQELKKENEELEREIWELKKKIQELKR

[21] = target: T21, 4H918-bH; test: two-hybrid library CCNG1
T21 chain: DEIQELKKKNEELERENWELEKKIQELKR

[22] = target: T22, 4H3462-bH; test: two-hybrid library CCNG1
T22 chain: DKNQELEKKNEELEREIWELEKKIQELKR

[23] = target: T23, 4H3497-bH; test: two-hybrid library CCNG1
T23 chain: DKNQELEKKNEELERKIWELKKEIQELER

[24] = target: T24, 4H855-bH; test: two-hybrid library CCNG1
T24 chain: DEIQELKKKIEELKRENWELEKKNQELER

[25] = target: T25, 4H118-bH; test: two-hybrid library CCNG1
T25 chain: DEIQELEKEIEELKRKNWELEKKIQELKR

[26] = target: T26, 4H3926-bH; test: two-hybrid library CCNG1; conditions: mean of both orientations
T26 chain: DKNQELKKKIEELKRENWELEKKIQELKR

[27] = target: T27, 4H591-bH; test: two-hybrid library CCNG1
T27 chain: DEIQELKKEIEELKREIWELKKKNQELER

[28] = target: T28, 4H1899-bH; test: two-hybrid library CCNG1
T28 chain: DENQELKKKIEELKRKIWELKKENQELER

[29] = target: T29, 4H3010-bH; test: two-hybrid library CCNG1
T29 chain: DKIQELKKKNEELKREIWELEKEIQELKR

[30] = target: T30, 4H1081-bH; test: two-hybrid library CCNG1; conditions: mean of both orientations
T30 chain: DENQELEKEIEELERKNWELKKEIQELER

[31] = target: T31, 4H1831-bH; test: two-hybrid library CCNG1
T31 chain: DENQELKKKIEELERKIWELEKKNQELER

[32] = target: T32, 4H683-bH; test: two-hybrid library CCNG1
T32 chain: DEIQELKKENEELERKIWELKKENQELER

[33] = target: T33, 4H780-bH; test: two-hybrid library CCNG1
T33 chain: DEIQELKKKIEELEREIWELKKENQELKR

[34] = target: T34, 4H953-bH; test: two-hybrid library CCNG1
T34 chain: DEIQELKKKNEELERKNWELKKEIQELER

[35] = target: T35, 4H3427-bH; test: two-hybrid library CCNG1
T35 chain: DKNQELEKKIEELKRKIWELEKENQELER

[36] = target: T36, 4H1373-bH; test: two-hybrid library CCNG1
T36 chain: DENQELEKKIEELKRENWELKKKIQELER

[37] = target: T37, 4H2627-bH; test: two-hybrid library CCNG1
T37 chain: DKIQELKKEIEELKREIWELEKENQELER

[38] = target: T38, 4H1985-bH; test: two-hybrid library CCNG1
T38 chain: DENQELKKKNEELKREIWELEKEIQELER

[39] = target: T39, 4H346-bH; test: two-hybrid library CCNG1
T39 chain: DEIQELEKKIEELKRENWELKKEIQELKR

[40] = target: T40, 4H1348-bH; test: two-hybrid library CCNG1
T40 chain: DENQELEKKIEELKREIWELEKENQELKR

[41] = target: T41, 4H3112-bH; test: two-hybrid library CCNG1
T41 chain: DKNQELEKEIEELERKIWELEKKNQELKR

[42] = target: T42, 4H3175-bH; test: two-hybrid library CCNG1
T42 chain: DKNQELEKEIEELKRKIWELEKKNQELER

[43] = target: T43, 4H3613-bH; test: two-hybrid library CCNG1
T43 chain: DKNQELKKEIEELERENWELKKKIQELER

[44] = target: T44, 4H797-bH; test: two-hybrid library CCNG1
T44 chain: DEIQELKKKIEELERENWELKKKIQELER

[45] = target: T45, 4H2673-bH; test: two-hybrid library CCNG1
T45 chain: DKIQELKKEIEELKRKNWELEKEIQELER

[46] = target: T46, 4H754-bH; test: two-hybrid library CCNG1
T46 chain: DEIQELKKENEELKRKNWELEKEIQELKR

[47] = target: T47, 4H626-bH; test: two-hybrid library CCNG1
T47 chain: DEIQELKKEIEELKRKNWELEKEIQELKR

[48] = target: T48, 4H1544-bH; test: two-hybrid library CCNG1
T48 chain: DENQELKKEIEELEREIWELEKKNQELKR

[49] = target: T49, 4H3277-bH; test: two-hybrid library CCNG1
T49 chain: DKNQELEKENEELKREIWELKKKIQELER

[50] = target: T50, 4H3298-bH; test: two-hybrid library CCNG1
T50 chain: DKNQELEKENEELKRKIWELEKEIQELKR

[51] = target: T51, 4H457-bH; test: two-hybrid library CCNG1
T51 chain: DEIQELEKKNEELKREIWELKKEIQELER

[52] = target: T52, 4H2586-bH; test: two-hybrid library CCNG1
T52 chain: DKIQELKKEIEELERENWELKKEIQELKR

[53] = target: T53, 4H1710-bH; test: two-hybrid library CCNG1
T53 chain: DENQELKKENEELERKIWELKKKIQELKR

[54] = target: T54, 4H2717-bA; test: two-hybrid library CCNG1
T54 chain: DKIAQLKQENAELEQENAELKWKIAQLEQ

[55] = target: T55, 4H1158-bH; test: two-hybrid library CCNG1
T55 chain: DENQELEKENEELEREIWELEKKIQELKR

[56] = target: T56, 4H575-bH; test: two-hybrid library CCNG1
T56 chain: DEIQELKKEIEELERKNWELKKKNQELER

[57] = target: T57, 4H968-bH; test: two-hybrid library CCNG1
T57 chain: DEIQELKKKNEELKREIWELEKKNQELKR

[58] = target: T58, 4H170-bH; test: two-hybrid library CCNG1
T58 chain: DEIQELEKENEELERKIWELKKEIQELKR

[59] = target: T59, 4H3628-bH; test: two-hybrid library CCNG1
T59 chain: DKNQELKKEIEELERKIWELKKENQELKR

[60] = target: T60, 4H953-bN; test: two-hybrid library CCNG1
T60 chain: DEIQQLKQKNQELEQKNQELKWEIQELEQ

[61] = target: T61, 4H4073-bH; test: two-hybrid library CCNG1
T61 chain: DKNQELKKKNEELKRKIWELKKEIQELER

[62] = target: T62, 4H3162-bH; test: two-hybrid library CCNG1
T62 chain: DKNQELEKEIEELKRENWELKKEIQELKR

[63] = target: T63, 4H112-bH; test: two-hybrid library CCNG1
T63 chain: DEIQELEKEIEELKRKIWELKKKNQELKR

[64] = target: T64, 4H906-bH; test: two-hybrid library CCNG1
T64 chain: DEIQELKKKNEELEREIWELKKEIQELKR

[65] = target: T65, 4H2627-bA; test: two-hybrid library CCNG1
T65 chain: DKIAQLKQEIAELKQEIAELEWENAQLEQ

interaction score [1]: 1.98
Binder: DENAALEAKIAALKAENAALEAKIAALKG [Core_NINI-es_EKEK]

interaction score [2]: 2.27
Binder: DEIAALEAKIAALKAENAALEAKNAALKG [Core_IINN-es_EKEK]

interaction score [3]: 2.15
Binder: DEIAALEAENAALEAENAALEAKIAALKG [Core_INNI-es_EEEK]

interaction score [4]: -2
interaction score [5]: -1.23
interaction score [6]: -1.87
interaction score [7]: -1.7
interaction score [8]: 2.08
interaction score [9]: -0.387
interaction score [10]: -0.914
interaction score [11]: -0.716
interaction score [12]: -1.5
interaction score [13]: -0.754
interaction score [14]: -1.15
interaction score [15]: -1.85
interaction score [16]: -0.763
interaction score [17]: -1.37
interaction score [18]: -0.794
interaction score [19]: -0.395
Binder: DKNSQLKQENSELEQEISELEWEISQLEQ [O1-bS]

interaction score [20]: 1.09
interaction score [21]: -0.0748
interaction score [22]: -0.765
interaction score [23]: -1.2
interaction score [24]: -0.163
interaction score [25]: -1.07
interaction score [26]: 1.74
interaction score [27]: -0.509
interaction score [28]: -0.674
interaction score [29]: -1.02
interaction score [30]: -1.95
interaction score [31]: -1.05
interaction score [32]: -0.574
interaction score [33]: -0.372
interaction score [34]: -0.931
interaction score [35]: -0.522
interaction score [36]: -1.35
interaction score [37]: 0.276
interaction score [38]: -1.01
interaction score [39]: 0.118
interaction score [40]: -1.51
interaction score [41]: -0.896
interaction score [42]: -0.0753
interaction score [43]: -1.47
interaction score [11]: 1.86
interaction score [44]: -0.717
interaction score [45]: -0.0547
interaction score [46]: -0.22
interaction score [47]: -0.576
interaction score [48]: -1.4
interaction score [49]: -0.363
interaction score [50]: -0.0402
interaction score [51]: -0.677
interaction score [52]: -2.05
interaction score [53]: -2.01
interaction score [54]: -0.543
interaction score [55]: 0.0141
interaction score [56]: -2.22
interaction score [57]: -0.887
interaction score [58]: -0.0634
interaction score [59]: -1.16
interaction score [60]: -0.336
interaction score [61]: -1.25
interaction score [62]: -0.705
interaction score [63]: -1.77
interaction score [64]: -0.686
interaction score [65]: 0.747
Binder: DENQELEKEIEELERKNWELKKEIQELER [4H1081-bH]
